Our source for the Peptide exchange values is patent US20160279215A1, “NOVEL PEPTIDES AND COMBINATION OF PEPTIDES FOR USE IN IMMUNOTHERAPY AGAINST VARIOUS TUMORS” (immatics biotechnologies GmbH, priority 2015, published 2016).

The target of the assay is T1, HLA-A*02:01 (Homo sapiens, UniProt P04439, D140Y/D185E/D98H/E176V/E277Q/G131W/G231S/I119V/I121R/I166T/I218V/L300P/L318F/N151K/N90K/P208A/P217A/Q86G/Q94H/R138H/R169H/T345S).
T1 construct: made in house
In words: MHC binding assay: UV-ligand exchange with β2m ELISA (peptide exchange yield). As to conditions: binding to HLA-A*02:01 evaluated by peptide exchange yield (UV-ligand exchange, β2m ELISA). From the text: Candidate peptides for T cell based therapies according to the present invention were further tested for their MHC binding capacity (affinity). The individual peptide-MHC complexes were produced by UV-ligand exchange, where a UV-sensitive peptide is cleaved upon UV-irradiation, and exchanged with the peptide of interest as analyzed. Only peptide candidates that can effectively bind and stabilize the peptide-receptive MHC molecules prevent dissociation of the MHC complexes. To determine the yield of the exchange reaction, an ELISA was performed based on the detection of the light chain (β2m) of stabilized MHC complexes. The assay was performed as generally described in Rodenko et al. (Rodenko et al., 2006).
96 well MAXISorp plates (NUNC) were coated over night with 2 ug/ml streptavidin in PBS at room temperature, washed 4× and blocked for 1 h at 37° C. in 2% BSA containing blocking buffer. Refolded HLA-A*02:01/MLA-001 monomers served as standards, covering the range of 15-500 ng/ml. Peptide-MHC monomers of the UV-exchange reaction were diluted 100 fold in blocking buffer. Samples were incubated for 1 h at 37° C., washed four times, incubated with 2 ug/ml HRP conjugated anti-β2m for 1 h at 37° C., washed again and detected with TMB solution that is stopped with […]. Absorption was measured at 450 nm. Candidate peptides that show a high exchange yield (preferably higher than 50%, most preferred higher than 75%) are generally preferred for a generation and production of antibodies or fragments thereof, and/or T cell receptors or fragments thereof, as they show sufficient avidity to the MHC molecules and prevent dissociation of the MHC complexes.
In general terms: In an ELISA, binding on a coated surface is turned into a signal by an enzyme label.
For the substance “220 (ALSELERVL; listed as Homo sapiens) [compound 220]”, the Peptide exchange entry was “+++ (≧50 = +++)”.
The same measure for “243 (GLAEFQENV; listed as Homo sapiens) [compound 243]”: “++ (≧20% = ++)”.
The result for “268 (SLDKDIVAL; listed as Homo sapiens) [compound 268]” reads “++ (≧20% = ++)”; that for “274 (TLYNPERTITV; listed as Homo sapiens) [compound 274]”, “+++ (≧50 = +++)”.
The same measure for “82 (ILAEEPIYIRV; listed as Homo sapiens) [compound 82]”: “+++ (≧50 = +++)”; for “211 (LLTTVLINA; listed as Homo sapiens) [compound 211]”: “+++ (≧50 = +++)”; for “25 (LLWGHPRVALA; listed as Homo sapiens) [compound 25]”: “+++ (≧50 = +++)”.
Regarding “1 (KLQEKIQEL; listed as Homo sapiens) [compound 1]”, the Peptide exchange result is on record as “++++ (≧75% = ++++)”.
The same measure for “129 (KMASKVTQV; listed as Homo sapiens) [compound 129]”: “++ (≧20% = ++)”; for “16 (SLADLSLLL; listed as Homo sapiens) [compound 16]”: “+++ (≧50 = +++)”.
As to “180 (RLYEEEIRI; listed as Homo sapiens) [compound 180]”, the Peptide exchange entry was “+++ (≧50 = +++)”.
On to “24 (KVWSDVTPL; listed as Homo sapiens) [compound 24]”, for which the Peptide exchange result is reported as “+++ (≧50 = +++)”.
The same measure for “83 (GLLENSPHL; listed as Homo sapiens) [compound 83]”: “++ (≧20% = ++)”; for “252 (SLMEKNQSL; listed as Homo sapiens) [compound 252]”: “++ (≧20% = ++)”.
“119 (SLIEESEEL; listed as Homo sapiens) [compound 119]”: the Peptide exchange entry was “++ (≧20% = ++)”.
The result for “190 (SLSTELFKV; listed as Homo sapiens) [compound 190]” reads “+++ (≧50 = +++)”; that for “111 (AQLEGKLVSI; listed as Homo sapiens) [compound 111]”, “+++ (≧50 = +++)”; that for “169 (ALADLSVAV; listed as Homo sapiens) [compound 169]”, “+++ (≧50 = +++)”.
The same measure for “210 (GLAGDNIYL; listed as Homo sapiens) [compound 210]”: “+++ (≧50 = +++)”.
The same measure for “176 (VQSGLRILL; listed as Homo sapiens) [compound 176]”: “++ (≧20% = ++)”; for “223 (ALHPVQFYL; listed as Homo sapiens) [compound 223]”: “+++ (≧50 = +++)”; for “67 (FLIENLLAA; listed as Homo sapiens) [compound 67]”: “+++ (≧50 = +++)”.
With “139 (IILENIQSL; listed as Homo sapiens) [compound 139]”, the Peptide exchange entry is listed as “+++ (≧50 = +++)”.
The result for “222 (LLTGVFAQL; listed as Homo sapiens) [compound 222]” reads “++ (≧20% = ++)”; that for “199 (SVADLAHVL; listed as Homo sapiens) [compound 199]”, “++ (≧20% = ++)”; that for “193 (ALFHMNILL; listed as Homo sapiens) [compound 193]”, “+++ (≧50 = +++)”.
The result for “95 (KLIDEDEPLFL; listed as Homo sapiens) [compound 95]” reads “+++ (≧50 = +++)”; that for “282 (SLYALHVKA; listed as Homo sapiens) [compound 282]”, “++ (≧20% = ++)”.
On to “185 (TLYQGLPAEV; listed as Homo sapiens) [compound 185]”, for which the Peptide exchange result is on record as “++ (≧20% = ++)”.
The result for “10 (QLIEKNWLL; listed as Homo sapiens) [compound 10]” reads “+++ (≧50 = +++)”; that for “70 (GLTEKTVLV; listed as Homo sapiens) [compound 70]”, “++ (≧20% = ++)”.
The same measure for “235 (SLLNQPKAV; listed as Homo sapiens) [compound 235]”: “++ (≧20% = ++)”; for “183 (ALSYILPYL; listed as Homo sapiens) [compound 183]”: “+++ (≧50 = +++)”.
The result for “249 (YLYQILQGI; listed as Homo sapiens) [compound 249]” reads “+++ (≧50 = +++)”; that for “133 (FLDGRPLTL; listed as Homo sapiens) [compound 133]”, “++ (≧20% = ++)”.
As for “130 (QLYGSAITL; listed as Homo sapiens) [compound 130]”, the Peptide exchange entry was “+++ (≧50 = +++)”.
As to “280 (HLWGHALFL; listed as Homo sapiens) [compound 280]”, the Peptide exchange result is listed as “+++ (≧50 = +++)”.
The same measure for “86 (SLFSNIESV; listed as Homo sapiens) [compound 86]”: “+++ (≧50 = +++)”; for “162 (GLLGNLLTSL; listed as Homo sapiens) [compound 162]”: “+++ (≧50 = +++)”; for “259 (GPGIFPPPPPQP; listed as Homo sapiens) [compound 259]”: “+ (≧10% = +)”.
The same measure for “214 (ALFETLIQL; listed as Homo sapiens) [compound 214]”: “+++ (≧50 = +++)”.
The same measure for “65 (SLSEKSPEV; listed as Homo sapiens) [compound 65]”: “++ (≧20% = ++)”.
As to “20 (ALVEKGEFAL; listed as Homo sapiens) [compound 20]”, the Peptide exchange result is on record as “++ (≧20% = ++)”.
The result for “134 (SLYKSFLQL; listed as Homo sapiens) [compound 134]” reads “++ (≧20% = ++)”; that for “98 (FVQEKIPEL; listed as Homo sapiens) [compound 98]”, “+++ (≧50 = +++)”; that for “155 (TLDSYLKAV; listed as Homo sapiens) [compound 155]”, “++ (≧20% = ++)”.
The same measure for “170 (FIAAVVEKV; listed as Homo sapiens) [compound 170]”: “++ (≧20% = ++)”.
The result for “113 (FLFLKEVKV; listed as Homo sapiens) [compound 113]” reads “++ (≧20% = ++)”.
For “108 (FIANLPPELKA; listed as Homo sapiens) [compound 108]”, the Peptide exchange result is “+++ (≧50 = +++)”.
Consider “31 (GLLETTGLLAT; listed as Homo sapiens) [compound 31]”, for which the Peptide exchange entry is reported as “+++ (≧50 = +++)”.
The result for “283 (ALSELLQQV; listed as Homo sapiens) [compound 283]” reads “+++ (≧50 = +++)”; that for “203 (FLFVDPELV; listed as Homo sapiens) [compound 203]”, “++ (≧20% = ++)”; that for “41 (IVTEIISEI; listed as Homo sapiens) [compound 41]”, “+++ (≧50 = +++)”.
The same measure for “107 (RVLPGQAVTGV; listed as Homo sapiens) [compound 107]”: “++ (≧20% = ++)”; for “71 (HMSGKLTNV; listed as Homo sapiens) [compound 71]”: “++ (≧20% = ++)”; for “137 (KLIYKDLVSV; listed as Homo sapiens) [compound 137]”: “++ (≧20% = ++)”.
The result for “217 (LLWPSSVPA; listed as Homo sapiens) [compound 217]” reads “+++ (≧50 = +++)”; that for “61 (ALYPKEITL; listed as Homo sapiens) [compound 61]”, “+++ (≧50 = +++)”; that for “215 (QIADIVTSV; listed as Homo sapiens) [compound 215]”, “++ (≧20% = ++)”.
In the case of “181 (LLWAPTAQA; listed as Homo sapiens) [compound 181]”, the Peptide exchange entry is on record as “+++ (≧50 = +++)”.
The same measure for “230 (KLLNMIFSI; listed as Homo sapiens) [compound 230]”: “+++ (≧50 = +++)”; for “182 (GLQDGFQITV; listed as Homo sapiens) [compound 182]”: “+++ (≧50 = +++)”; for “52 (TIGIPFPNV; listed as Homo sapiens) [compound 52]”: “++ (≧20% = ++)”.
Regarding “99 (TLFGIQLTEA; listed as Homo sapiens) [compound 99]”, the Peptide exchange entry is “+++ (≧50 = +++)”.
For “165 (SLLDYEVSI; listed as Homo sapiens) [compound 165]”, the Peptide exchange entry is “+++ (≧50 = +++)”.
The result for “79 (TVLEEIGNRV; listed as Homo sapiens) [compound 79]” reads “++ (≧20% = ++)”.
